Measured values reported in the supplement of paper PMC10567573.
± gives the standard deviation.

Assay: protein stability index of a GFP-peptide fusion (GPS, HEK-293T) (PSI 1-6); higher = more stable
Settings: c terminus: a fixed tail appended
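Also: 24-mer peptide tiles fused after GFP, lentivirally expressed, FACS-sorted into six equal bins by GFP/DsRed ratio, decoded by Illumina sequencing, PSI is the read-weighted mean bin number.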

Sequence | protein stability index (treatment: DMSO) | protein stability index (treatment: MLN4924 1 uM, 8 h)
LTHLVKLDLSKNKLQQLPADFGRL [LRRC59] | 2.65 ± 0.19 | 2.7 ± 0.17
LTKLREMGREKCHQYWPAERSARY [PTPRD] | 2.33 ± 0.21 | 2.9 ± 0.45
LTLSQYILLDPILMFFIMAAMLSM [POMT2] | 3.29 ± 0.56 | 2.95 ± 0.69
LTSELDPEKEQEIETIKIIETEDQ [MIA2] | 4.84 ± 0.051 | 5.46 ± 0.33
LVDVACKHLTDTSHGVRNKCLQLL [INTS4] | 2.18 ± 0.49 | 2.46 ± 0.17
LVKHWYQNCKKKLGKLPPQYALEL [OAS1] | 2.43 ± 0.83 | 2.51 ± 0.63
LVKKVEEDEAGGRFVAFSGEGQSL [UFD1] | 4.71 ± 0.14 | 4.81 ± 0.18
LVLEQFLTILPTEIETWVREHCPE [ZNF449] | 2.2 ± 0.47 | 2.35 ± 0.47
LVTLNDMKAKQEALVKEREKQLAK [FAM50A] | 4.23 ± 0.24 | 4.25 ± 0.45
LWEAEDRQNVPRKVPNHYIAIPEW [CPXM2] | 3 ± 0.31 | 3.02 ± 0.32
LWRSRVVPDREEGGSGGGGGGDED [SMAD6] | 5.36 ± 0.29 | 5.45 ± 0.14
LYKEELEQTYHAKLENARLSSEMN [LMNB1] | 3.21 ± 0.64 | 3.62 ± 0.25
MAETSLLEAGASAASTAAALENLQ [TRIM39] | 4.59 ± 0.32 | 4.4 ± 0.29
MAGRLMIRKLVAEKLNIPWNHIRL [AASDHPPT] | 2.4 ± 0.94 | 2.12 ± 0.34
MAPLQPSTSRAHKLPSRRQPGLLH [FAM189A2] | 3.62 ± 0.18 | 3.72 ± 0.28
MAQSRDGGNPFAEPSELDNPFQDP [SCAMP3] | 5.19 ± 0.17 | 5.19 ± 0.23
MASCPDSDNSWVLAGSESLPVETL [PBXIP1] | 4.31 ± 0.27 | 4.41 ± 0.22
MASSPIQPRKGGADWLGLKDEDLD [FBF1] | 5.12 ± 0.37 | 5.07 ± 0.26
MAVTGWLESLRTAQKTALLQDGRR [DPCD] | 2.51 ± 0.14 | 2.68 ± 0.17
MCEQCDVFYCDPCRLRCHPPRGPL [TRIM9] | 2.8 ± 0.32 | 2.72 ± 0.35
MDIGQPKDFLTGMCLFLQSLRQKQ [GMPPB] | 2.46 ± 0.11 | 2.72 ± 0.39
MDRSLVQDAPLSDCTETIEGLELT [ADD1] | 5.27 ± 0.28 | 5.32 ± 0.19

Sequence | protein stability index (treatment: DMSO) | protein stability index (treatment: MLN4924 1 uM, 8 h)
MDTAMEVVKFVNFLLVNGFQTAID [TRAF3IP2] | 2.73 ± 1.1 | 2.79 ± 0.086
MEDSQETSPSSNNSSEELSSALHL [NECAB1] | 5.57 ± 0.18 | 5.55 ± 0.18
MEKGPVRAPAEKPRGARCSNGFPE [GCH1] | 4.46 ± 0.29 | 4.58 ± 0.25
MEPGDIIGVAGNHWDGYSKGVNRK [FUT8] | 4.4 ± 0.22 | 4.6 ± 0.35
METSPSEEDSFYRSSYPQQQGLGA [TBX5] | 4.37 ± 0.073 | 4.47 ± 0.17
MGSAADVRFSLGTTTHAPPGVHRR [PPFIA4] | 4.26 ± 0.3 | 4.51 ± 0.39
MKNKNNVTEFILLGLTQNPEGQKV [OR4A15] | 2.44 ± 0.31 | 2.99 ± 0.11
MLKFLAKGEVPKGSCEDEPMDSTM [ATE1] | 4.22 ± 0.3 | 4.36 ± 0.092
MLWVQRKRRRKETSECPSDKDKSP [C10orf62] | 3.2 ± 0.42 | 3.66 ± 0.43
MNAVGSPEGQELQKLGSGAWDNPA [PKD2L1] | 4.59 ± 0.2 | 4.35 ± 0.27
MPEFSSDSTMRILSNLVQHILKKY [RTP4] | 2.2 ± 0.39 | 2.52 ± 0.31
MPLKWKTSSPAIWKFPVPVLKTSR [KLHL13] | 2.46 ± 0.052 | 2.47 ± 0.44
MPRQISRQSSVTESTLYPNPYHQP [TPRG1] | 3.73 ± 0.34 | 3.7 ± 0.25
MQERVQRLEAARLSLEEELSRVKA [LRRC45] | 4.25 ± 0.5 | 4.48 ± 0.27
MRHVEKMCKADLSRNFIERNHMEN [TRIM29] | 3.05 ± 0.16 | 3.1 ± 0.12
MRSAAVLALLLCAGQVTALPVNSP [CHGA] | 3.21 ± 0.45 | 2.83 ± 0.57
MSASLNYKSFSKEQQTMDNLEKQL [TRIM55] | 4.71 ± 0.23 | 4.47 ± 0.14
MSLKCLAARAVRANDINYQDQIPR [FEM1B] | 3.49 ± 0.34 | 3.52 ± 0.17
MSQGPPTGESSEPEAKVLHTKRLY [SMG5] | 4.81 ± 0.24 | 4.94 ± 0.15
MTKTVQYQNELHKFLIWDTAGQER [RAB22A] | 3.03 ± 0.23 | 3.14 ± 0.17
MVTCKSEFYHDEFKRWIYLNDQNL [GAN] | 2.44 ± 0.43 | 2.25 ± 0.48
NAAKTCPTMPALFSDHTFRHYAYL [INTS4] | 2.03 ± 0.42 | 2.13 ± 0.29

Sequence | protein stability index (treatment: DMSO) | protein stability index (treatment: MLN4924 1 uM, 8 h)
NALKDARAKLDELEGALHQAKEEL [KRT71] | 5.06 ± 0.38 | 4.97 ± 0.095
NATLTQYQLLATHVPTVWAIDQYR [RHOBTB2] | 2.61 ± 0.58 | 2.48 ± 0.31
NCLTGEGEDTRLSASEMKQLIDNI [CIB1] | 4.67 ± 0.18 | 4.74 ± 0.32
NCVLSSSPNPFPEISRGEYLYTYD [ZNF8] | 2.76 ± 0.42 | 3.01 ± 0.3
NDVKHHRWFRSVDWEAVPQRKLKP [PRKX] | 3.65 ± 0.19 | 3.6 ± 0.24
NETKSQAFVSNSPKLFCPKNRSFD [PLD5] | 4.21 ± 0.23 | 3.86 ± 0.54
NFEEMRALLDSLPPPVESELALFQ [KLHL14] | 3.46 ± 0.45 | 3.91 ± 0.28
NFGLRLVVQRCSGQKWMIRNWIKH [GALNT9] | 2.67 ± 0.32 | 2.06 ± 0.59
NFRDLVRDLEKQKEEVRAALEQRE [TRIM29] | 4.54 ± 0.11 | 4.43 ± 0.21
NGAKELWFFLQSELKKLKNLEGNE [FUT8] | 2.45 ± 0.47 | 2.48 ± 0.33
NGEYTLMPSPTDVVLPGAVSLRYS [ADAMTS4] | 3.23 ± 0.34 | 3.28 ± 0.41
NGGVVQVGELLPCKICGRTFFPVA [ZC2HC1A] | 2.42 ± 0.091 | 2.48 ± 0.47
NGNGKNGGLEHVPSSSSIHNGDME [BNIP3L] | 5.28 ± 0.2 | 5.28 ± 0.24
NGWTCLHWACKRNHGQVVSYLLKS [ANKRD40] | 2.72 ± 0.46 | 2.29 ± 0.43
NILLDKHRMVVKIGDFGISKILSS [NEK8] | 2.19 ± 0.15 | 2.09 ± 0.17
NIRPADSRWVRDPRYREDPCKQCK [FBXO34] | 4.13 ± 0.36 | 4.28 ± 0.13
NKTWREQYLRLPDAPEQRLRVMTT [ELOA2] | 3.26 ± 0.31 | 3.19 ± 0.48
NLFVPLNTNPKEVQEMRNKIREQN [ADD1] | 4.29 ± 0.18 | 4.18 ± 0.24
NLSKTQNMERFGEDNLEDDDVEMK [CDC14A] | 5.4 ± 0.061 | 5.4 ± 0.12
NLSRDVTEALILQLFSQIGPCKNC [TIA1] | 2.48 ± 0.42 | 2.91 ± 0.6
NMDPAGLDDEDDTSIGMPSLMYRS [RETREG3] | 4.87 ± 0.15 | 4.91 ± 0.1
